Data reported in US9988424 (DUKE UNIVERSITY, dated 2018).
Changes are numbered by the printed parent chain. Like-named read-outs stand apart in the source and are kept apart here.

Assays:
D.9009SA V1V2 Tags [1] = target: T1, D.9009SA V1V2 Tags; assay: ELISA, OD405
T1 Env construct: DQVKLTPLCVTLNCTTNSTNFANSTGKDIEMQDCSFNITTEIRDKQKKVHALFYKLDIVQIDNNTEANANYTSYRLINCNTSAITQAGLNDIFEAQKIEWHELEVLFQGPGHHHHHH

A.9004SS V1V2 Tags [2] = target: T2, A.9004SS V1V2 Tags; assay: ELISA, OD405
T2 Env construct: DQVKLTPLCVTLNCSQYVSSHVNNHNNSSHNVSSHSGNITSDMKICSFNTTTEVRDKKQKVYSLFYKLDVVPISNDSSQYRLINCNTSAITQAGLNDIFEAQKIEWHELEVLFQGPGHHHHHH

Con 6 gp120 [3] = assay: ELISA, OD405 at 10 ug/ml
B.040 gp140C [4] = assay: ELISA, OD405 at 10 ug/ml
G.con gp140CF [5] = assay: ELISA, OD405 at 10 ug/ml
D.9009SA V1/V2 tags = assay: ELISA, OD405 at 10 ug/ml
AE.con gp140CF [6] = assay: ELISA, OD405 at 10 ug/ml
B.63521_V1/V2 tags = assay: ELISA, OD405 at 10 ug/ml
B.62357 gp140C = target: T3, B.62357 gp140C; assay: ELISA, OD405 at 10 ug/ml
T3 construct: also called B.62357 140C

A.9004SS V1/V2 tags = target: T4, A.9004SS V1/V2 tags; assay: ELISA, OD405 at 10 ug/ml
T4 V1V2 tags construct: T2 Env construct

C.1086 gp140 = target: T5, C.1086 gp140; assay: ELISA, OD405 at 10 ug/ml
T5 construct: also called C.1086gp140C

MN gp120 = MN gp120 (HIV-1)
AE.A244 V1V2 Tags [7] = target: AE.A244 V1V2 Tags (HIV-1); assay: ELISA; markers as in the legend printed on D00157
AE.A244 V1V2 Tags [8] = target: AE.A244 V1V2 Tags (HIV-1)
C.1086 gp120 = C.1086 gp120 (HIV-1); assay: ELISA, OD405 at 10 ug/ml
B.con gp140CF [9] = assay: ELISA, OD405 at 10 ug/ml
B.Case A2 V1/V2 tags [10] = assay: ELISA, OD405 at 10 ug/ml
G.con gp140CF [11] = target: T6, G.con gp140CF; assay: ELISA, OD405
T6 construct: also called G.con.env03 gp140CF

B.63521 gp140C = assay: ELISA, OD405
B. 684-6 gp140C = assay: ELISA, OD405
D.9009SA V1V2 Tags [12] = target: T1, D.9009SA V1V2 Tags; assay: ELISA, OD405
A.9004SS V1V2 Tags [13] = target: T2, A.9004SS V1V2 Tags; assay: ELISA, OD405
AE.con gp140CF [14] = target: T7, AE.con gp140CF; assay: ELISA, OD405
T7 construct: also called AE.con.env03 gp140CF

B.62357 140C = target: T8, B.62357 140C; assay: ELISA, OD405
T8 construct: also called B.62357 gp140C

B.con gp140CF [15] = target: T9, B.con gp140CF; assay: ELISA, OD405
T9 construct: also called B.con.env03 gp140CF

Con 6 gp120 [16] = assay: ELISA, OD405
B. 681-7 gp140C = assay: ELISA, OD405
B.63521_V1V2 Tags = target: T10, B.63521_V1V2 Tags; assay: ELISA, OD405
T10 Env construct: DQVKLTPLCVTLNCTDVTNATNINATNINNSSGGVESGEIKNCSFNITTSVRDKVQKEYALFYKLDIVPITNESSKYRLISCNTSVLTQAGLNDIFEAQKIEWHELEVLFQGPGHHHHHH

B.040 gp140C [17] = assay: ELISA, OD405
B.Case A2 V1/V2 Tags [18] = target: T11, B.Case A2 V1/V2 Tags; assay: ELISA, OD405
T11 Env construct: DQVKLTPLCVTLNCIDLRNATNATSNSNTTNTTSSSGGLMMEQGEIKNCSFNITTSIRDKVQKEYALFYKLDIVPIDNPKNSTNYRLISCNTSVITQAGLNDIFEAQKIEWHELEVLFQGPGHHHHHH

B1: PG16 (antibody, V domains shown)
VH: QEQLVESGGGVVQPGGSLRLSCLASGFTFHKYGMHWVRQAPGKGLEWVALISDDGMRKYHSDSMWGRVTISRDNSKNTLYLQFSSLKVEDTAMFFCAREAGGPIWHDDVKYYDFNDGYYNYHYMDVWGKGTTVTVSS
VL: QSALTQPASVSGSPGQTITISCNGTSSDVGGFDSVSWYQQSPGKAPKVMVFDVSHRPSGISNRFSGSKSGNTASLTISGLHIEDEGDYFCSSLTDRSHRIFGGGTKVTVL
notes: also called mAb PG16; bnAb PG16
binding result (D.9009SA V1V2 Tags [1]): no binding (tested: 10 ug/ml) | binding result (A.9004SS V1V2 Tags [2]): no binding (tested: 10 ug/ml)

B2: CH59 (antibody, V domains shown)
VH: EVQLVESGGGLVQPGRSLRLSCAASGFTFDDGAMHWVRQAPGKGLEWVSGISWNSNIIAYADSVKGRFTISRDNAKNSLYLEMNSLRVEDTALYYCAKDSPRGELPLNYWGQGTLVTVSS
VL: SYELTQPPSVSVSPGQTARITCSGDALPKNYAYWYQQKSGQAPVLVIYEDSKRPSGIPERFSGSSSGTMATLTISGAQVEDEADYYCYSTDSSGNHRVFGGGTKLTVL
notes: also called mAb CH59
binding result (Con 6 gp120 [3]): no binding (tested: 10 ug/ml) | binding result (B.040 gp140C [4]): no binding (tested: 10 ug/ml) | binding result (G.con gp140CF [5]): no binding (tested: 10 ug/ml) | binding result (D.9009SA V1/V2 tags): binds | binding result (AE.con gp140CF [6]): binds | binding result (B.63521_V1/V2 tags): no binding (tested: 10 ug/ml) | binding result (B.62357 gp140C): no binding (tested: 10 ug/ml) | binding result (A.9004SS V1/V2 tags): binds | binding result (C.1086 gp140): binds | IC50 (MN gp120): 10 to 100 nM

B3: CH59 reverted unmutated ancestor antibody (antibody, V domains shown)
VH: B2 VH with G32Y, N56G, I57S, A59G, E82Q, V88A, L107F, N108D
VL: B2 VL with N30K
notes: also called CH59 RUA; CH59_RUA
EC50 (read off the curve) (AE.A244 V1V2 Tags [7]): ~0.08 µg/mL

B4: 697D (antibody, V domains shown)
VH: QVQLVQSGAEVKKPGSSVKVSCKASGGNFNTYTISWVRQAPGQGLEWMGRIIPIFGIVNPAQKFPGRVTINVDKSTNTAYMELSSLRSEDTAVYYCATSGVGLHFGYFDYWGQGTQVTVSS
VL: QSVLTQPPSVSGAPGQRVTISCTGSSSNIGAHYDVHWYQQLPGTAPKLLIYGNSNRPSGVPDRFSGSKSGTSASLAITGLQAEDEADYYCQSYDSSLSGYVFGTGTKVTVL
notes: also called mAb 697D; V2 conformational mAb 697D
Kd (AE.A244 V1V2 Tags [8]): 117 nM | koff (AE.A244 V1V2 Tags [8]): 0.0024 s⁻¹ | kon (AE.A244 V1V2 Tags [8]): 20000 M⁻¹ s⁻¹

B5: 697D reverted unmutated ancestor antibody (antibody, V domains shown)
VH: QVQLVQSGAEVKKPGSSVKVSCKASGGTFSSYTISWVRQAPGQGLEWMGRIIPILGIANYAQKFQGRVTITADKSTSTAYMELSSLRSEDTAVYYCATSGVGLHFGYFDYWGQGTLVTVSS
VL: B4 VL with H32G
notes: also called 697D RUA
binding result (C.1086 gp120): no binding (tested: 10 ug/ml) | binding result (B.con gp140CF [9]): no binding (tested: 10 ug/ml) | binding result (B.Case A2 V1/V2 tags [10]): no binding (tested: 10 ug/ml)

B6: PG9 reverted unmutated ancestor antibody (antibody, V domains shown)
VH: QVQLVESGGGVVQPGRSLRLSCAASGFTFSSYGMHWVRQAPGKGLEWVAVISYDGSNKYYADSVKGRFTISRDNSKNTLYLQMNSLRAEDTAVYYCAREAGGPDYRNGYNYYDFWSGYYNYYYMDVWGKGTTVTVSS
VL: QSALTQPASVSGSPGQSITISCTGTSSDVGSYNLVSWYQQHPGKAPKLMIYEVSKRPSGVSNRFSGSKSGNTASLTISGLQAEDEADYYCCSLTSTRRWVFGGGTKLTVL
notes: also called PG9 RUA; PG9_RUA
binding result (G.con gp140CF [11]): no binding (tested: 10 ug/ml) | binding result (B.63521 gp140C): no binding (tested: 10 ug/ml) | binding result (B. 684-6 gp140C): no binding (tested: 10 ug/ml) | binding result (D.9009SA V1V2 Tags [12]): no binding (tested: 10 ug/ml) | binding result (A.9004SS V1V2 Tags [13]): no binding (tested: 10 ug/ml) | binding result (AE.con gp140CF [14]): no binding (tested: 10 ug/ml) | binding result (B.62357 140C): no binding (tested: 10 ug/ml) | binding result (B.con gp140CF [15]): no binding (tested: 10 ug/ml) | binding result (Con 6 gp120 [16]): no binding (tested: 10 ug/ml) | binding result (B. 681-7 gp140C): no binding (tested: 10 ug/ml) | binding result (B.63521_V1V2 Tags): no binding (tested: 10 ug/ml) | binding result (B.040 gp140C [17]): no binding (tested: 10 ug/ml) | binding result (B.Case A2 V1/V2 Tags [18]): no binding (tested: 10 ug/ml)
